According to patent US12480043B2, “Red-light-mediated nucleic acid anchoring-type fluorescent probe, and preparation method therefor and use thereof” (SOOCHOW UNIVERSITY, priority 2020, dated 2025):

Columns and labels:
[1] = TEM and particle size of probe in aqueous solution; assay type: physicochemical; conditions: TEM
[2] = UV visible near-infrared and fluorescence spectra in aqueous solution; assay type: physicochemical; conditions: 10 μM in ultrapure water
[3] = 10 μM
[4] = tested on: 4T1 mice breast cancer tumor
Procedure: The control group probe CR and the experimental group probe f-CR were treated with PBS to a concentration of […] 200 μL. MB (PBS, 0.1) was injected into the mouse tumor 0.5 hours in advance by intratumor injection, followed by tail vein injection of CR or f-CR.

4T1 cells = assay: Cytotoxicity of probes co-incubated with MB and cells

Structure (SMILES): CC[N+]1=C(/C=C/C=C/C=C/C=C2\N(CCCCCC(=O)NCCCCC3NC(=O)C(Cc4ccccc4)NC(=O)C(CC(=O)O)NC(=O)CNC(=O)C(CCCNC(=N)N)NC3=O)c3ccc(S(=O)(=O)O)cc3C2(C)C)C(C)(C)c2cc(S(=O)(=O)O)ccc21 (stereo not drawn) [CR]
- assembly or nanostructure [1]: no assembly or nanostructure was found
- maximum absorption [2]: 747 nm
- maximum emission [2]: 789 nm
- solubility in ultrapure water [3]: completely soluble

Structure (SMILES): CC[N+]1=C(/C=C/C=C/C=C/C=C2\N(CCCCCC(=O)NC(CCCCNC(=O)CCc3ccco3)C(=O)NCCCCC3NC(=O)C(Cc4ccccc4)NC(=O)C(CC(=O)O)NC(=O)CNC(=O)C(CCCNC(=N)N)NC3=O)c3ccc(S(=O)(=O)O)cc3C2(C)C)C(C)(C)c2cc(S(=O)(=O)O)ccc21 (stereo not drawn) [f-CR]
- enrichment in the tumor ([4]; 12 hours after probe injection, f-CR+MB+660 nm, tumor sections and organ homogenates): much higher than that of other groups
- retention time in vivo (tumor, IVIS) ([4]; MB intratumor 0.5 hours in advance, probe 100 Mm 200 μL tail vein, 660 nm 50 mW/cm^2 3 minutes after 1 hour): much longer than that of other groups
- solubility in ultrapure water [3]: completely soluble
- toxicity without illumination (4T1 cells; 100, 50, 20, 10, 1, 0.1 μM + MB 0.1 μM, 4T1 cells, 12 hours): neither CR nor f-CR showed significant toxicity
- cytotoxicity after illumination (4T1 cells; probe + MB 0.1 μM, 4T1 cells 12 hours, 660 nm 50 mW/cm 2 3 minutes, further cultured 48 hours): exhibited certain cytotoxicity
